Experimental data: the supplement of paper PMC11780869

System: Bacillus subtilis
Assay: cleaved RNA product abundance (RNA/gDNA barcode ratio) relative to median wild-type variant (ratio to wild type); higher = more accumulation of the downstream cleavage product
How it was run: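 B. subtilis strains with chromosomally integrated reporter mRNAs (truncated aprE or tetM) holding barcoded, mutagenized RNase Y cleavage-site windows grew in LB at 37°C from OD600 0.0003 to 0.3. Cleaved product abundance is each construct's RNA:gDNA barcode ratio, scaled to the median construct with the unmutated site. It came from sequencing barcodes of gel-selected, reverse-transcribed cleaved RNA and of genomic DNA.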

[1] = experiment (reporter, strain, medium): exp 8a: truncated aprE reporter, strain BJT201 with 2% xylose (RNase J1 expressed), cleavage site: glnRA (positions -5 to +31 mutated)
[2] = experiment (reporter, strain, medium): exp 2b: truncated aprE reporter, strain BJT200, cleavage site: cggR-gapA (positions -7 to +36 mutated)
[3] = experiment (reporter, strain, medium): exp 4a: truncated aprE reporter, strain BJT201 with 2% xylose (RNase J1 expressed), cleavage site: cggR-gapA (positions -7 to +36 mutated)
[4] = experiment (reporter, strain, medium): exp 6: tetM reporter, strain 168, cleavage site: cggR-gapA (positions -7 to +36 mutated)

Sequence	cleaved RNA product abundance [1]	cleaved RNA product abundance [2]	cleaved RNA product abundance [3]	cleaved RNA product abundance [4]
CGACATGTCCCGCTTCTTTCATTAATCCGTTATCAACTGTTTTGCTATATACATTAACCTTTTAAGAGGAGGAAT	0.283	–	–	–
ACAGACGAAGGAGCCGCAAAGAAGTTATTAAGGGATGAAAAATCCCTCAATATTAATATCTCTCACTTATTTAAA	–	0.199	0.157	–
CGACATGTCCCGCTTCTTTCATTAATCCGTTAGCATCTGTTTTGCTATATACCTTTACCTTTTAAGAGGAGGAAT	0.152	–	–	–
CGACATGTCCCGCTTCTTTCATTAATCCGTAAGCAACTGTTTTGCTATATACATATACCTTTTAAGAGGAGGAAT	0.551	–	–	–
CGACATGTCCCGCTTCTTTCATTAATCCGTTATCACCTGTTTTGCTATATACATTTACCTTTTAAGAGGAGGAAT	0.198	–	–	–
CGACATGTCCCGCTTCTTTCATTATTCCGTTAGCAACTGTTTTGCTATATACATTTAACTTTTAAGAGGAGGAAT	1.71	–	–	–
ACAGACGAAGGAGCCGCAAAGAAGTTATTAAGGGATGAATGATCCCTCCATATAAATATCTCTCACTTATTTAAA	–	0.123	–	–
CGACATGTCCCGCTTCTTTCATTAATCCGTTACCAAATGTTTTGCTATATACATTTACCTTTTAAGAGGAGGAAT	0.256	–	–	–
ACAGACGAAGGAGCCGCAAAGAAATTATTAAGGGACGAATAATCCCTCAATATAAATATCTCTCACTTATTTAAA	–	0.392	0.596	–
ACAGACGAAGGAGCCGCAAACAAGTTATTAAGGGATGGATAATCCCTCAATATAAATATCTCTCACTTATTTAAA	–	–	0.545	–
CGACATGTCCCGCTTCTTTCATTAATCCGTTATCAACTGTGTTGCTATATACATTTACCTTTTAAGAGGAGGAAT	0.27	–	–	–
ACAGACGAAGGAGCCGCAAAGAAGTTATAAAGGGATGACTAATCCCTCAATATAAATATCTCTCACTTATTTAAA	–	–	0.286	0.319
CGACATGTCCCGCTTCTTTCATTAACCCGTTAGCAACTGTATTGCTATATACATTCACCTTTTAAGAGGAGGAAT	0.379	–	–	–
ACAGACGAAGGAGCCGCAAAGAAGTTATTAATGGATGAATAATCCCTCAATATAACTATCTCTCACTTATTTAAA	–	–	0.072	–
ACAGACGAAGGAGCCGCAAAGAAGTTATTAAGGTATGAATAATCCCTGAATATAAATATCTCTCACTTATTTAAA	–	0.0773	0.0951	–
CGACATGTCCCGCTTCTTTCATTAATCCGTTAGCAACCGTTTTGCAATATACATTTACCTTTTAAGAGGAGGAAT	0.344	–	–	–
ACAGACGAAGGAGCCGCAAAGAAGTTATTAAGCGATGAATAAACCCTCAATATAAATATCTCTCACTTATTTAAA	–	–	0.0954	–
ACAGACGAAGGAGCCGCAAAGAAGTTATTAAGGGAGGAATAATCCCTCAATATAAATATCTCTCACTTATTTAAA	–	0.499	0.603	0.591
ACAGACGAAGGAGCCGCAAAGAAGTTATTAAGGGTTGAATAATCCCTCAATATACATATCTCTCACTTATTTAAA	–	–	0.404	–
ACAGACGAAGGAGCCGCAAAGAAGTTATTAAGGGATAAATAATCCTTCAATATAAATATCTCTCACTTATTTAAA	–	0.303	0.338	–
ACAGACGAAGGAGCCGCAAAGACGTTATTAAGGGATGAATAATCCCTCAATATAAATATCTCTCACTTATTTAAA	–	0.978	1.02	1.12
ACAGACGAAGGAGCCGCGAAGAAGTTATTAAGGGATGAATACTCCCTCAATATAAATATCTCTCACTTATTTAAA	–	–	0.528	–
CGACATGTCCCGCTTCTTTCATTATTCCTTTACCAACTTTTTTGCTATATATATATACCTTTTAAGAGGAGGAAT	0.182	–	–	–
ACAGACGAAGGAGCCGCAAAGAAGTTATTAAGGGATGAATAATCCCTAAATATAAAAATCTCTCACTTATTTAAA	–	0.46	0.622	–
ACAGACGAAGGAGCCGCAAAGAAGTTATTAAGGGGTGAATACTCCCTCAATATAAATATCTCTCACTTATTTAAA	–	–	0.256	–
